Source: US20250263441A1 (published 2025)

Biological target: Toll-Like Receptor 2 (TLR2)
Assay: SPR

Toll-Like Receptor 2 (TLR2), sequence (chain, as listed by the source): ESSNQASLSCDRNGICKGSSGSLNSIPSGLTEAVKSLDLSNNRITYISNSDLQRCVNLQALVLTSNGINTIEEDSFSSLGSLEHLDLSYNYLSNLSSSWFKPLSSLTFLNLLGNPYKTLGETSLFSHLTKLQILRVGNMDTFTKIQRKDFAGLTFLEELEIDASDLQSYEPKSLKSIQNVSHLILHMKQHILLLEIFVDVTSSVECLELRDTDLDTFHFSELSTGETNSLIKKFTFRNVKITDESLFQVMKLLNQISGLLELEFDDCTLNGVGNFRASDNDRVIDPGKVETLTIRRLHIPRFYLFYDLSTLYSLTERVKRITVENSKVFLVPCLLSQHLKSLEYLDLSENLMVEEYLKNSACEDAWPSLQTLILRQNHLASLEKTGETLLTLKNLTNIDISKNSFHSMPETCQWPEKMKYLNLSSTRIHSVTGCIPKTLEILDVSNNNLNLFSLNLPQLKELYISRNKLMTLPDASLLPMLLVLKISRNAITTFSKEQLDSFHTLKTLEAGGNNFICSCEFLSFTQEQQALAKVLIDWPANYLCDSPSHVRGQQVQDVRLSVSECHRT

Binder	Kd [nM]
GIFKKIAGKLFKWIK (Chemically synthesized variant of AMP5) [AMP5-T7A]	373
GIFKKITGKCFKWIK (Chemically synthesized variant of AMP5) [AMP5-L10C]	834
GIFKKITGKLFKWIK (also called polypeptide 1) [AMP5]	543
